Assay: soluble on expression in E. coli; label from the status in PepcDB or PDB records

| Sequence | soluble on expression in E. coli |
| --- | --- |
| GHMKLKTKTMEWSGNSLKLLDQRKLPFIEEYVECKTHEEVAHAIKEMIVRGAPAIGVAAAFGYVLGLRDYKTGSLTDWMKQVKETLARTRPTAVNLFWALNRMEKVFFENADRENLFEILENEALKMAYEDIEVNKAIGKNGAQLIKDGSTILTHCNAGALATVDYGTALGVIRAAVESGKRIRVFADETRPYLQGARLTAWELMKDGIEVYVITDNMAGWLMKRGLIDAVVVGADRIALNGDTANKIGTYSLAVLAKRNNIPFYVAAPVSTIDPTIRSGEEIPIEERRPEEVTHCGGNRIAPEGVKVLNPAFDVTENTLITAIITEKGVIRPPFEENIKKILEVGS | soluble |
| GHMLVYNQEELVRFVEEAKQYARYGKVADYIPALGKANPNELSIAIYTPDDEVVSAGDVTVKVTLQSISKIIALALVLIDRGEDEVFHKVGMEPTDYPFHSIAKLEEKPAKPLNPMINAGALVVTSMIQGGSVSERLERLLAFVRRLAGNERISYSDEVARSEFETAFLNRSLCYFLKQHRIIDEDVEELMELYTKQCAIEMTCIDLARIGLVLALDGRDPHSSEPLMPLDVARICKTFMVTCGMYNSSGEFAIKVGIPAKSGVSGGILAAVPGRCGIGVFGPALDDKGNSLTGVKLLERLSKTYSLSIF | soluble |
| GHMPFEWVKQYDYEDIIYETYNGIAKITINRPEVHNAFRPKTVNEMIDAFTKARDDSNIGVIILTGAGGKAFCSGGDQKVRGHGGYVGEDEIPRLNVLDLQRLIRVIPKPVIAMVAGYAIGGGHVLHVVCDLTIAADNAIFGQTGPKVGSFDGGYGAGYLARIVGHKKAREIWYLCRQYTAQEALEMGLVNKVVPLEQLEEETVKWAQEILEKSPTAIRFLKAAFNADSDGLAGIQQLAGDATLLFYTTEEAKEGMRAFKEKRKPDFSQFPRFP | soluble |
| GIDPFTKANSEACRDGLRAVMECRNVTHLLQQELTEAQKGFQDVEAQAATCNHTVMALMASLDAEKAQGQKKVEELEGEITTLNHKLQDASAEVERLRRENQVLSVRIADKK | soluble |
| GIDPFTMVALSLKISIGNVVKTMQFEPSTMVYDACRMIRERIPEALAGPPNDFGLFLSDDDPKKGIWLEAGKALDYYMLRNGDTMEYRKKQRPLKIRMLDGTVKTIMVDDSKTVTDMLMTICARIGITNHDEYSLVRELMEEKKDELNWLDHGRTLREQGVEEHETLLLRRKFFYSDQ | soluble |
| GILAEAHGTRPDLTDQPLPDADHTWYTDGSSLLQEGQRKAGAAVTTETEVIWAKALPAGTSAQRAELIALTQALKMAEGKKLNVYTDSRYAFATAHLTSEGKEIKNKDEILALLKALFLPKRLSIIHCPGHQKGHSAEARGNRMADQAARKAAITETPDTSTLL | soluble |
| GIQPVISAQEQETQIVLYGKLVEARQKHANKMDVPPAILATNKILVDMAKMRPTTVENVKRIDGVSEGKAAMLAPLLEVIKHFCQTNSVQTDLFSSTKPQEEQ | soluble |
| GKEHILVCISPSQGNEKVIRTAARMAEALKGKLTAVFVETPEYEESSIKEQESLRKNLRLAEQLGAQISSVYGEDISQQLAEYANVSQATKIILGRSSKRKSWLKPKLVDKLSEQIDSTDIYIIPDTQP | not soluble |
| GKKDTQSITLEELAKIIKKCKHVVALTGSGTSAESNIPSFRGSSNSIWSKYDPRIYGTIWGFWKYPEKIWEVIRDISSDYEIEINNGHVALSTLESLGYLKSVVTQNVDGLHEASGNTKVISLHGNVFEAVCCTCNKIVKLNKIMLQKTSHFMHQLPPECPCGGIFKPNIILFGEVVSSDLLKEAEEEIAKCDLLLVIGTSSTVSTATNLCHFACKKKKKIVEINISKTYITNKMSDYHVCAKFSELTKVANILKGSSEKNKKIM | soluble |
| GKKLEPIEELTIDVPEEFMGVVMEKLGPRKAELVNMTSAVNGYTRLEFKIPSRGLIGFRNEFMTDTKGNGIMNSTLIDYEPFRGDIPERSRGSIVVFETGVSVVYGLYSAQERGRLFVGAGVDVYEGMV | not soluble |
| GKRDNLEIDRTGLALTAFYARNLAVPERRRVEHPQVLRGKQLFHEAGCPACHVPKFVTHRLKDQPEQSFQLIWPYTDLLLHDMGEGLADGRPEGRATGREWRTAPLWGIGLTEQVSGHANFLHDGRARSILEAVLWHGGEAEAARARVMALPAPDRAALVAFVEDL | not soluble |
| GLGKFIETCRNTQLAGSSELAAECKTRAQQFVSTKINLDDHIANIDGTLKWQPSNFSQTCYNSAIQGSVLTSTCERTNGGYNTSSIDLNSVIENVDGSLKYE | soluble |
| GMAQNIYDQPDFFAGYSQLGRSIEGLDGAAEWPALRAMLPEVGGLRIVDLGCGFGWFCRWAHEHGASYVLGLDLSEKMLARARAAGPDTGITYERADLDKLHLPQDSFDLAYSSLALHYVEDVARLFRTVHQALSPGGHFVFSTEHPIYMAPARPGWAIDAEGRRTWPIDRYLVEGPRKTDWLAKGVVKHHRTVGTTLNALIRSGFAIEHVEEFCPTDAQITARPELAEELDRPMFLLVSARR | soluble |
| GMDQESNATSQDILKQHAAHYESDMGGLPEALVQLAEYAPETFDAYSRMRTTMLKSEADGAKLPLKYKHLILVVLDAIRDEPIGIVNHTRAAMNAGLSVDELIEGILLGIIVYGMPAWGKTGRKAVTFAVEFEKELAGKRT | soluble |
| GMEQLQKRKIYDTTASNASTGILNGKSSNVLNWDDVRFSWAYPLYKNMLANFWTPFEINMSHDAKQFPTLTETEQEAFKKIIGLLAFLDSVQTDYSMRAAEYLTDSSLAALMSVLSFQEVVHNQSYSYVLSSLVPKATQDEIFEYWKHDDVLKERNEFIIDGYEKFVDNPTPKTFLESIVYDVILEGLNFYSGFAFFYNLARNQKMVSTSTMINYINRDEQLHVYLFTNIFKELLVEFPELNTEETKTFVKTTLMKAADLEKDWFRYIIGDKIPGINPEDMETYISFIANKRAVQLGMEKPYPEIKHNPMKWIRAYEDVNSGKSDFFEQKSRQYAKVSADNGFDEL | soluble |
| GMKGENMMVKLIALYEQPEDKQAFDEHYFNTHAPLTRKIPGLRDMKVTRIVGSPMGESKFYLMCEMYYDDHESLQQAMRTDEGKASGKDAMKFAGKLLTLMIGEEMDE | soluble |
| GMKSSQPFIYEAHAARVVFGAGSSSQVAAEVERLGAKRALVLCTPNQQAEAERIADLLGPLSAGVYAGAVMHVPIESARDATARAREAGADCAVAVGGGSTTGLGKAIALETGMPIVAIPTTYAGSEVTPVYGLTEAGTKRTGRDPRVLPRTVIYDPALTVGLPRGLSVTSALNAIAHAAEGLYARDANPVMSLMAEEGIRALAAGIPAVFNDPADLDARSQCLYGAWLCGTVLGGVGMALHHKLCHTLGGSFNLPHAETHTIVLPHALAYNAAAVPEAMARIRRATGAGEQSAAATLFDLAQRHGAPVALRDIGMREEDLDRAADIALASPYWNPRPIEREPIRALLQAAYEGVRPD | soluble |
| GMKTLCTHSLPKEKMPYLLRSGEGERYLFGRQVATVMANGRSTGDLFEIVLLSGGKGDAFPLHVHKDTHEGILVLDGKLELTLDGERYLLISGDYANIPAGTPHSYRMQSHRTRLVSYTMKGNVAHLYSVIGNPYDHAEHPPYASEEVSNERFAEAAAVADIVFLDEAKPACSAKLAELTELPDGAVPYVLESGEGDRLLTGDQLHRIVAAQKNTDGQFIVVSSEGPKGDRIVDHYHEYHTETFYCLEGQMTMWTDGQEIQLNPGDFLHVPANTVHSYRLDSHYTKMVGVLVPGLFEPFFRTLGDPYEGHIFPCEPQALRFDRILQNIEALDLKVMKP | soluble |
| GMKVTNYQGATIDPYSKGLGMVPGTSIQLTDAARLEWNLLNEDVSLPAAVLYADRVEHNLKWMQAFVAEYGVKLAPHGKTTMAPQLFRRQLETGAWGITLATAHQVRAAYHGGVSRVLMANQLVGRRNMMMVAELLSDPEFEFFCLVDSVEGVEQLGEFFKSVNKQLQVLLELGVPGGRTGVRDAAQRNAVLEAITRYPDTLKLAGVELYEGVLKEEHEVREFLQSAVAVTRELVEQERFARAPAVLSGAGSAWYDVVAEEFVKASETGKVEVVLRPGCYLTHDVGIYRKAQTDIFARNPVAKKMGEGLLPALQLWAYVQSIPEPDRAIIGLGKRDSAFDAGMPEPARHYRPGNEAPRDIAASEGWEIFGLMDQHAYLRIPAGADLKVGDMIAFDISHPCLTFDKWRQVLVVDPAYRVTEVIETFF | soluble |
| GMLTDMQRDSASSSTVTTEQIVYGALPLTTINEPECRAIAITSINGSATLSGVSGPMGDQTDADLLIQLRGWADAIVVGAETARKENYGPVVLPHGIKNQRQKLGRCGLPKLTLLSKSLYFDFSSELFSPDLPSELSPLVITQQPANNSEQWDQRLQKLIDVGVEVIVAPTSTNPLKIAFDALHARRLKKISIEGGPSVYRQALSLGIVDRLHLTIAPNIICPVESPLFGKISDDSFTTRLVLEMLSSSPNGLIFSRYKVIRDTLGNPTQ | soluble |
| GMQTKVINFNDKFSLFNQHWSPRVIAEMNDYQFKLVKVEGEFVWHEHADTDEVFIVMEGTLQIAFRDQNITLQAGEMYVIPKGVEHKPMAKEECKIMIIEPR | soluble |
| GMRLPLNQRVAILLHEGTTGTIGKTGLALLRYSEAPIVAVIDRNCAGQSLREITGIYRYVPIVKSVEAALEYKPQVLVIGIAPKGGGIPDDYWIELKTALQAGMSLVNGLHTPLANIPDLNALLQPGQLIWDVRKEPANLDVASGAARTLPCRRVLTVGTDMAIGKMSTSLELHWAAKLRGWRSKFLATGQTGVMLEGDGVALDAVRVDFAAGAVEQMVMRYGKNYDILHIEGQGSLLHPGSTATLPLIRGSQPTQLVLVHRAGQTHNGNNPHVPIPPLPEVIRLYETVASGGGAFGTVPVVGIALNTAHLDEYAAKEAIAHTIAETGLPCTDVVRFGADVLLDAVMQN | soluble |
| GMSFENYFPLWNDLNTAQKKLISDNLITQHVKKGTIIHNGNMDCTGLLLVKSGQLRTYILSDEGREITLYRLFDMDMCLLSASCIMRSIQFEVTIEAEKDTDLWIIPAEIYKGIMKDSAPVANYTNELMATRFSDVMWLIEQIMWKSLDKRVASFLLEETSIEGTNELKITHETIANHLGSHREVITRMLRYFQVEGLVKLSRGKITILDSKRLETLQRS | soluble |
| GMSNLETAKAMIAAYNAQDVDTYVSYMTDDACEANYRGDVVREGKEGTRSGLAAAFARWPQNHAEIKDAQQVGTYVLMREHVTRGPATDGSPLVEPFDVVAVYSFEGDKCSRVEFIR | soluble |
| GMSTPTPDTDVEQVGLANTAFYEAMERGDFETLSSLWLTPADLGVDEEYHDPADAGVVSCVHPGWPVLSGRGEVLRSYALIMANTEYIQFFLTDVHVSVTGDTALVTCTENILSGGPPPDDSDELGPLVGQLVVATNVFRRTPDGWKLWSHHASPVLAETGAEEGDESPD | soluble |
| GMTKKTGFFKRLKALTLPQKQLFATALCQRMLPNYQLFSEVCEFGDPAVLSTALELLWQSLYDPKLKFNIDVHLQRLEDNTPEPADFEAYGVYPAMDAVVAISTLLGAIQGKIEEDIVNISKLSSSTVANYIEAISDVDLVDEALDDFVFAHEVMEEEKELQNSLLEIIEENPKITAELVKGLRKDIIETGVSNIGISVA | soluble |
| GMTYQALMFDIDGTLTNSQPAYTTVMREVLATYGKPFSPAQAQKTFPMAAEQAMTELGIAASEFDHFQAQYEDVMASHYDQIELYPGITSLFEQLPSELRLGIVTSQRRNELESGMRSYPFMMRMAVTISADDTPKRKPDPLPLLTALEKVNVAPQNALFIGDSVSDEQTAQAANVDFGLAVWGMDPNADHQKVAHRFQKPLDILELFK | soluble |

— the DeepSol protein solubility set
